From patent publication US20120328616A1

Biological target: human FGFR1c/human β-Klotho complex (FGF21 receptor) (human) (UniProt P11362)
Assay: cell-based or functional assay

EC50, pERK Human Adipocyte Assay: 0.623 nM
Substance: human FGF21 (ligand)
